Results reported in patent US20250289873A1 (BROADWING BIO, published 2025).
Substitutions are numbered along the chain they refer to. Blank lines part the entries; values can stand above or below the binder they belong to.

What was measured:
[1] = biological target: T1, human CFHL3-His (ATX-P-58) (human, UniProt Q02985 19-330); test: Carterra LSA biosensor, mAb printed on chip, human CFHL3-His at 550 nM
T1 construct: also called human CFHR3 protein; CFHR3; not shown: C-terminal His tag (and linker)
T1 sequence (looked up): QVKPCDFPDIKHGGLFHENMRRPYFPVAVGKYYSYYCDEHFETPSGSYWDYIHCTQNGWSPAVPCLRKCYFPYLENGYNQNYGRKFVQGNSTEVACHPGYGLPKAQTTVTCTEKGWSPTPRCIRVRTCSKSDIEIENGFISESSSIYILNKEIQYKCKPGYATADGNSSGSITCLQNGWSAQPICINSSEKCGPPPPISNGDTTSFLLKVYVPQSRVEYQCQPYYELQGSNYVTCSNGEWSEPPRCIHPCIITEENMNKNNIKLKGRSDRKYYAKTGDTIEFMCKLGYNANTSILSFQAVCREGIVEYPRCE
Method: (§1) Experiments were also conducted to determine the reactivity of the CFHR4 antibodies with the human CFHR3 protein (FIG. 9). The binding experiments were performed on Carterra LSA with a running buffer of PBS pH 7.40, 1% BSA, 0.05% Tween20. Antibodies were covalently printed on an HC30M chip. Chip was activated with 33 mM s-NHS and 133 mM EDC in 100 mM MES pH 5.5 for 7 minutes. Antibodies at 10 mg/ml in acetic acid buffer pH 4.5 were used for printing for 10 min. The printed chip was then quenched with 1 M ethanolamine pH 8.5 for 7 min. For the reactivity assay, ATX-P-58, human CFHL3-His, at 550 nM was tested with 5 min association followed by 15 min dissociation. Results were processed and analyzed in Carterra LSA Kinetics Software. The data was referenced with the interstitial reference spots and double-referenced to a buffer cycle, and then the responses (nm) after association were reported. Isotype control was used to determine the cutoff response for positive binding.

[2] = biological target: T2, Human CFHL1-Y402H-His (ATX-P-421) (human); test: Carterra LSA biosensor, mAb printed on chip, human CFHL1-Y402H-His at 380 nM
T2 construct: also called human CFHL-1 (Y402H) protein
T2 chain: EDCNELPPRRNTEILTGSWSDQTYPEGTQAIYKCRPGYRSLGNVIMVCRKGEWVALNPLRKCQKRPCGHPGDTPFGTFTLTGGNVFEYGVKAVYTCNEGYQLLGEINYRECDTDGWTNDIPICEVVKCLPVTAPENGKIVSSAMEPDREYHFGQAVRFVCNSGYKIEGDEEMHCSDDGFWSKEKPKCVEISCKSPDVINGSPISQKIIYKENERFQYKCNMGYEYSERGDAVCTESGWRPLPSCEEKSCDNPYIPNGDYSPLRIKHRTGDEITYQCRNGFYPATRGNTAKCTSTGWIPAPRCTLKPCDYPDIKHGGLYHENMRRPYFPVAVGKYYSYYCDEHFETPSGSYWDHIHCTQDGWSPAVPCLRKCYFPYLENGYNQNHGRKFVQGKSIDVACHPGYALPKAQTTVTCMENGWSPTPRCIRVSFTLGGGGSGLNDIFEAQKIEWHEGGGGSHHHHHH
Method: as §1, with “CFHL-1 (Y402H)” for “CFHR3”, “10).” for “9).”, “ATX-P-421,” for “ATX-P-58,”, “CFHL1-Y402H-His,” for “CFHL3-His,”, “380” for “550”

[3] = biological target: T2, Human CFHL1-Y402H-His (ATX-P-421); test: Carterra LSA biosensor, mAb printed on chip, cutoff set by isotype control
Method: as §1
as §1, with “CFHL-1 (Y402H)” for “CFHR3”, “10).” for “9).”, “ATX-P-421,” for “ATX-P-58,”, “CFHL1-Y402H-His,” for “CFHL3-His,”, “380” for “550”

[4] = biological target: T1, human CFHL3-His (ATX-P-58); test: as above
Method: as §1
as §1, with “CFHL-1 (Y402H)” for “CFHR3”, “10).” for “9).”, “ATX-P-421,” for “ATX-P-58,”, “CFHL1-Y402H-His,” for “CFHL3-His,”, “380” for “550”

- binding result [1]: binds
- binding result [2]: binds
B1: ATX-P-588 (antibody, human IgG1, kappa, N297A, V domains shown)
VH: EVQLVESGGGLVQPGRSLRLSCAASGFTFEDYAMHWVRQAPGKGLEWVSGISWNSGSIGYADSVKGRFTISRDNAKKSLYLQMNSLRAEDTALYYCTKDRDDGYNYAGVFDYWGQGTLVTVSS
VL: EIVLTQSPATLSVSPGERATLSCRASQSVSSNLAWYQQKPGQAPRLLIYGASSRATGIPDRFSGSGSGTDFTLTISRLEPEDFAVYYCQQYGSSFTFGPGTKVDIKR

- binding result [1]: binds
- binding result [3]: no binding (tested: 380 nM)
B3: ATX-P-608 (antibody, human IgG1, kappa, N297A, V domains shown)
VH: QVQLQESGPGLVKPSGTLSLTCAVSGGSISSSNWWSWVRQSPGKGLEWIGEIYHTGSTNKKPSLKSRVIISVDKSKNQFSLKLISVNAADTAIYYCARDREGGTTEAFDIWGQGTMVTVSS
VL: EIVMTQSPATLSVSPGERATLSCRASQSVSSNLAWYQQKPGQAPRLLIYGASTRATGIPVRFSGSGSGTQFTLTISSLQSEDFAVYYCQQYDNWRTFGQGTRLEIKR

- binding result [1]: binds
- binding result [3]: no binding (tested: 380 nM)
B4: ATX-P-609 (antibody, human IgG1, kappa, N297A, V domains shown)
VH: QVQLQESGPGLVKPSGTLSLTCAVSGGSISSSNWWSWVRQPPGKGLEWIGEIYHSGSTNYNPSLKSRVTISVDKSKNQFSLKLRSVTAADTAVYYCARDQLSSGPTDAFDIWGQGTMVTVSS
VL: B3 VL with R102K

- binding result [1]: binds
- binding result [3]: no binding (tested: 380 nM)
B7: ATX-P-610 (antibody, human IgG1, kappa, N297A, V domains shown)
VH: QVQLQQSGPGLVKSSQTLSITCAISGDSVSSNSAAWNWIRQSPSRGLEWLGRTYYRSKWYNDYALSVKSRIIIKSDTSKNQFSLQLNSVTPEDTAVYYCAREPGIAAPGPFDYWGQGSLVTVSS
VL: DIQMTQSPSSVSASVGDRVTITCRASQGISSWLAWYQQKPGKAPKLLIYAASSLQSGVPSRFSGSGSGTDFTLTISSLQPEDFATYYCQQNYRTPITFGQGTRLEIKR

- binding result [3]: no binding (tested: 380 nM)
B10: ATX-P-603 (antibody, human IgG1, kappa, N297A, V domains shown)
VH: QVQLQESGPGLVKPSGTLSLTCAVSGGSISGSHWWSWFRQPPGKGLEWIGEIYHTGSTNKNPSLKSRVTISLDKSKNQFSLRLRSVTDADTAVYYCARDQYTGSPRDAFDIWGQGTMVTVSS
VL: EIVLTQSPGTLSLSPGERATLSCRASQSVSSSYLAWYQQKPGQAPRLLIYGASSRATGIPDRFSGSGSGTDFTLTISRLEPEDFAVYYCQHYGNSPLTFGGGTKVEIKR

- binding result [4]: no binding (tested: 550 nM)
- binding result [2]: binds
B12: ATX-P-571 (antibody, human IgG1, kappa, N297A, V domains shown)
VH: QVQLQESGPGLVKPSGTLSLTCAVSGGSISSRNWWSWVRQPPGKGLEWIGEIYHGGTTNYNPSLKSRVTISVDKSKNQFSLKLSSVTAADTAVYYCARGGLRLGELSPNAFDIWGQGTMVTVSS
VL: DIQMTQSPSSLSASVGDRVTITCRASQSISSYLNWYQQKPGKAPKVLIYAASSLQSGIPSRFSGSGSGTDFTLTISSLQPEDFATYYCQETYSVPLTFGGGTKVEIKR

- binding result [1]: binds
- binding result [3]: no binding (tested: 380 nM)
B15: ATX-P-572 (antibody, human IgG1, kappa, N297A, V domains shown)
VH: QVQLQQSGPGLVKPSQTLSLTCAISGDSVSSNSAAWNWIRQSPSRGLEWLGMTYYRSKWYSVFAVSVKSRITINTDTSKNQFSLQLNSVTPEDTAVYYCAREGGIVGATPFDYWGQGTLVTVSS
VL: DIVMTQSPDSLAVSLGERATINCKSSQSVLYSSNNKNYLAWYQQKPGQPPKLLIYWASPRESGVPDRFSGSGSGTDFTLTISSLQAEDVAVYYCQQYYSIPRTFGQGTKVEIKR

The remaining lines, values behind:

B2: ATX-P-600 (antibody, human IgG1, kappa, N297A, V domains shown)
VH: B1 VH with E30D, A40V, K43R, N54S, S55G, A75S, K77N, D101E, A107G
VL: EIVLTQSPGTLSLSPGERATLSCRASQNVRGSYLAWYQQKPGQAPRLLIYGASNRATDIPDRFSGSGSGTDFTLTISGLEPEDFVVYYCQQYGSSYTFGQGTKVEIKR
- binding result [1]: binds
- binding result [2]: binds

B5: ATX-P-569 (antibody, human IgG1, kappa, N297A, V domains shown)
VH: EVQLVESGGGLAQFGRSLRLSCAASGFTFDDYAMHWLRQAPGMGLEWVSGISWNSGSIGYADSVKGRFTIARDNAKNSVHLQMNSLRAEDTALYYCAKDIGNGYTKGDVFDIWGQGTMVTVSS
VL: DIQMTQSPSTLSASVGDSVTITCRASQNIITWLAWYQQKPGKAPNLLIYKASSLESGVPSRFSGSGSGTEFTLTISSLQPDDFATYYCQQYSSYSYTFGQGTKLEIKR
- binding result [1]: binds
- binding result [3]: no binding (tested: 380 nM)

B6: ATX-P-561 (antibody, human IgG1, kappa, N297A, V domains shown)
VH: QVQLQQSGPGLVKPSQTLSLTCAISGDSVSSNSAAWNWIRQSPSRGLEWLGRTYYRSKWYNGYAVSMKSRITINPDTSKNQFSLQLNSVTPEDTAMYYCAREGVGATTGFDYWGQGTLVTVSS
VL: B7 VL with V11L, A34T, S56G, N91A, Y92N, R93S, T94F, I96P, R103K, L104V
- binding result [1]: binds
- binding result [2]: binds

B8: ATX-P-582 (antibody, human IgG1, kappa, N297A, V domains shown)
VH: QVQLQESGPGLVKPSGTLSLTCAVSGGSISISKWWSWVRQPPGKGLEWIGEIYHTGSTNYHPSLKSRVTISVDKSKNQFYLKLNSVTAADTAVYYCARDELRLGELSPSLDIWGQGTMVTVSS
VL: DIQMTQSPSSLSASVGDRVTITCRASQNINNYLNWFRQKPGKAPKLLIFAASSLQSGVPSRFSGSESGTDFTLTISSLQPEDFATYYCQQSYSTPLTFGGGTKVEIKR
- binding result [4]: no binding (tested: 550 nM)
- binding result [2]: binds

B9: ATX-P-570 (antibody, human IgG1, kappa, N297A, V domains shown)
VH: QVQLQESGPGLVKPSETMSLTCTVSGGSFTGYYWSWIRQPPGKGLEWIGYVHYSGGTKSNPSLKSRVTISVDTSKNQFSLKLSSVTAADTAVYYCARERYEWNSYFDYWGQGTLVTVSS
VL: not shown
- binding result [4]: no binding (tested: 550 nM)
- binding result [2]: binds

B11: ATX-P-594 (antibody, human IgG1, kappa, N297A, V domains shown)
VH: QVQLQQSGPGLVKPSQTLSLTCAISGDSVSSNSASWNWIRQSPSRGLEWLGTTYYRSKWFNVYAVSVKSRITINPDTSKNQFSLHLNSVTPEDTAIYFCTRDRGDLLHWYFDLWGRGTLVTVSS
VL: EIVLTQSPGTLSLSPGERATLSCRASQSVSSSYLAWYQQKPGQSPRLLIYGASSRATGIPDRFSGSGSGTDFTLTISRLEPEDFAVYYCQQYGRSVTFGGGTKLEIKR
- binding result [1]: binds
- binding result [2]: binds

B13: ATX-P-596 (antibody, human IgG1, kappa, N297A, V domains shown)
VH: EVQLVESGGGLVQPGRSLRLSCAASGFSFDDYAMHWVRQVPGKGLEWVSGISWTGGSVGYADPVKGRFTISRDNAKNSLYLQMNSLRPEDTALYYCAKDMGDGYSRNWPFDYWGQGTLVTVSS
VL: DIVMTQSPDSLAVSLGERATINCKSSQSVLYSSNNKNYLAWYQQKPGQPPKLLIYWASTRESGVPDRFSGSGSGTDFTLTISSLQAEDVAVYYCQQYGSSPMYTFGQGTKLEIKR
- binding result [1]: binds
- binding result [2]: binds

B14: ATX-P-592 (antibody, human IgG1, kappa, N297A, V domains shown)
VH: B15 VH with M52R, V62D, F63Y, A64P, V65L, T75P, E102D, G103S, G107E, A108T
VL: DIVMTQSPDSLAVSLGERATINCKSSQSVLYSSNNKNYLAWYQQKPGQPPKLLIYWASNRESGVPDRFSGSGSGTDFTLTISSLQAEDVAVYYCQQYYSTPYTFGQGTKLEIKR
- binding result [1]: binds
- binding result [3]: no binding (tested: 380 nM)

B16: ATX-P-595 (antibody, human IgG1, kappa, N297A, V domains shown)
VH: B7 VH with S14P, I20L, Y60F, I72T, K74N, S75P, Q85H, A106V, S118T
VL: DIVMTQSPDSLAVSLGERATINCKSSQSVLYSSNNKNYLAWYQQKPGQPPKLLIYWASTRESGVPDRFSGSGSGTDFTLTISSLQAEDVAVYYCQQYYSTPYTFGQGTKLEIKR
- binding result [1]: binds
- binding result [2]: binds
